Assay results published in patent publication US20220220215A1 (CRESCENDO BIOLOGICS, published 2022).

B1: TPP-1011: PD138G7(G109D)-6GS-HSA3-6GS-CD137D-His (bispecific antibody)
chain: EVQLVESGGGVVRPGGSLRLSCAASGFTFDDYAMSWVRQAPGKGLEWVSGITWNGGSTGYADSVKDRFTISRDNAKNSLYLQMNSLRAEDTALYYCVRDKYSYAWSYDDFDIWGQGTMVTVSSGGGGSGGGGSGGGGSGGGGSGGGGSGGGGSEVQLLESGGGLVKPGGSLRLSCAASGFTVSSYTMNWVRQAPGKGLEWVSSISSSGRYIYYADSVKGRFTISRDNAKNSLYLQMNSLRAEDTAVYYCARDPRMVGNPHEFDIWGQGTMVTVSSGGGGSGGGGSGGGGSGGGGSGGGGSGGGGSEVQLVESGGGVVQPGGSLRLSCAASGFTFSNYGMHWVRQAPGKGLEWVAVISNDGNTKTYADSVKGRFTISRDNSKNTLYLQMNSLRAEDTAVYYCAQDETTTVTASYYFDYWGQGTLVTVSSAAAHHHHHH
B2: TPP-957; PD138G7(G109D)-6GS-172E1-13-6GS-HSA2-His (bispecific antibody)
chain: EVQLVESGGGVVRPGGSLRLSCAASGFTFDDYAMSWVRQAPGKGLEWVSGITWNGGSTGYADSVKDRFTISRDNAKNSLYLQMNSLRAEDTALYYCVRDKYSYAWSYDDFDIWGQGTMVTVSSGGGGSGGGGSGGGGSGGGGSGGGGSGGGGSEVQLVESGGGVVQPGGSLRLSCAASGFTFSNYGMHWVRQAPGKGLEWVAVISNDGNTKTYADSVKGRFTISRDNSKNTLYLQMNSLRAEDTAVYYCAQDETTTVTASYYFDYWGQGTLVTVSSGGGGSGGGGSGGGGSGGGGSGGGGSGGGGSEVQLVESGGGLVKPGGSLRLSCAASGFTFSNYNMNWVRQAPGKGLEWVSSISSAGTHIYYADSVKGRFTISRDNAKNSLYLQMNSLRAEDTAVYYCARDPHSTGWYKDFDYWGQGTLVTVSSAAAHHHHHH
B3: TPP-975: CD137D-6GS-PDA2-6GS-HSA2-His (bispecific antibody)
chain: EVQLVESGGGVVQPGGSLRLSCAASGFTFSNYGMHWVRQAPGKGLEWVAVISNDGNTKTYADSVKGRFTISRDNSKNTLYLQMNSLRAEDTAVYYCAQDETTTVTASYYFDYWGQGTLVTVSSGGGGSGGGGSGGGGSGGGGSGGGGSGGGGSEVQLVESGGGVVRPGGSLRLSCAASGFTFDDYAMSWVRQAPGKGLEWVSGITWNAGSTGYADSVKGRFTISRDNAKNSLYLQMNSLRAEDTALYYCVRDKYSYAWSYDDFDIWGQGTMVTVSSGGGGSGGGGSGGGGSGGGGSGGGGSGGGGSEVQLVESGGGLVKPGGSLRLSCAASGFTFSNYNMNWVRQAPGKGLEWVSSISSAGTHIYYADSVKGRFTISRDNAKNSLYLQMNSLRAEDTAVYYCARDPHSTGWYKDFDYWGQGTLVTVSSAAAHHHHHH
B4: TPP-1009: PDA-6GS-hsa1-6GS-CD137D-His (bispecific antibody)
chain: EVQLVESGGGLVQPGRSLRLSCAASGFTFDDYALHWVRQAPGKDLEWVSGISWNGGSYGYADSVKGRFTISRDNAKNSLYLQMNSLRAEDTALYYCVREKGPGLTGSTADYYGLDAWGQGTMVTVSSGGGGSGGGGSGGGGSGGGGSGGGGSGGGGSEVQLVESGGGLVQPGRSLRLSCAASGFTFHHYAMHWVRQAPGKGLEWVSGISWNGNKITYADSVKGRFTISRDNAKNSLYLQMNSLRAEDTALYYCVRDSSLFIVGAPTFEHWGRGTLVTVSSGGGGSGGGGSGGGGSGGGGSGGGGSGGGGSEVQLVESGGGVVQPGGSLRLSCAASGFTFSNYGMHWVRQAPGKGLEWVAVISNDGNTKTYADSVKGRFTISRDNSKNTLYLQMNSLRAEDTAVYYCAQDETTTVTASYYFDYWGQGTLVTVSSAAAHHHHHH
B5: TPP-984: CD137D-6GS-HSA2-6GS-PDA-His (bispecific antibody)
chain: EVQLVESGGGVVQPGGSLRLSCAASGFTFSNYGMHWVRQAPGKGLEWVAVISNDGNTKTYADSVKGRFTISRDNSKNTLYLQMNSLRAEDTAVYYCAQDETTTVTASYYFDYWGQGTLVTVSSGGGGSGGGGSGGGGSGGGGSGGGGSGGGGSEVQLVESGGGLVKPGGSLRLSCAASGFTFSNYNMNWVRQAPGKGLEWVSSISSAGTHIYYADSVKGRFTISRDNAKNSLYLQMNSLRAEDTAVYYCARDPHSTGWYKDFDYWGQGTLVTVSSGGGGSGGGGSGGGGSGGGGSGGGGSGGGGSEVQLVESGGGLVQPGRSLRLSCAASGFTFDDYALHWVRQAPGKDLEWVSGISWNGGSYGYADSVKGRFTISRDNAKNSLYLQMNSLRAEDTALYYCVREKGPGLTGSTADYYGLDAWGQGTMVTVSSAAAHHHHHH
B6: TPP-1012 PD138G7(G109D)-6GS-HSA1-6GS-CD137D-His (bispecific antibody)
chain: EVQLVESGGGVVRPGGSLRLSCAASGFTFDDYAMSWVRQAPGKGLEWVSGITWNGGSTGYADSVKDRFTISRDNAKNSLYLQMNSLRAEDTALYYCVRDKYSYAWSYDDFDIWGQGTMVTVSSGGGGSGGGGSGGGGSGGGGSGGGGSGGGGSEVQLVESGGGLVQPGRSLRLSCAASGFTFHHYAMHWVRQAPGKGLEWVSGISWNGNKITYADSVKGRFTISRDNAKNSLYLQMNSLRAEDTALYYCVRDSSLFIVGAPTFEHWGRGTLVTVSSGGGGSGGGGSGGGGSGGGGSGGGGSGGGGSEVQLVESGGGVVQPGGSLRLSCAASGFTFSNYGMHWVRQAPGKGLEWVAVISNDGNTKTYADSVKGRFTISRDNSKNTLYLQMNSLRAEDTAVYYCAQDETTTVTASYYFDYWGQGTLVTVSSAAAHHHHHH
B7: TPP-958: PD138G7(G109D)-6GS-172E1-13-6GS-HSA3-His (bispecific antibody)
chain: EVQLVESGGGVVRPGGSLRLSCAASGFTFDDYAMSWVRQAPGKGLEWVSGITWNGGSTGYADSVKDRFTISRDNAKNSLYLQMNSLRAEDTALYYCVRDKYSYAWSYDDFDIWGQGTMVTVSSGGGGSGGGGSGGGGSGGGGSGGGGSGGGGSEVQLVESGGGVVQPGGSLRLSCAASGFTFSNYGMHWVRQAPGKGLEWVAVISNDGNTKTYADSVKGRFTISRDNSKNTLYLQMNSLRAEDTAVYYCAQDETTTVTASYYFDYWGQGTLVTVSSGGGGSGGGGSGGGGSGGGGSGGGGSGGGGSEVQLLESGGGLVKPGGSLRLSCAASGFTVSSYTMNWVRQAPGKGLEWVSSISSSGRYIYYADSVKGRFTISRDNAKNSLYLQMNSLRAEDTAVYYCARDPRMVGNPHEFDIWGQGTMVTVSSAAAHHHHHH
B8: TPP-1008: PDA-6GS-HSA3-6GS-CD137D-His (bispecific antibody)
chain: EVQLVESGGGLVQPGRSLRLSCAASGFTFDDYALHWVRQAPGKDLEWVSGISWNGGSYGYADSVKGRFTISRDNAKNSLYLQMNSLRAEDTALYYCVREKGPGLTGSTADYYGLDAWGQGTMVTVSSGGGGSGGGGSGGGGSGGGGSGGGGSGGGGSEVQLLESGGGLVKPGGSLRLSCAASGFTVSSYTMNWVRQAPGKGLEWVSSISSSGRYIYYADSVKGRFTISRDNAKNSLYLQMNSLRAEDTAVYYCARDPRMVGNPHEFDIWGQGTMVTVSSGGGGSGGGGSGGGGSGGGGSGGGGSGGGGSEVQLVESGGGVVQPGGSLRLSCAASGFTFSNYGMHWVRQAPGKGLEWVAVISNDGNTKTYADSVKGRFTISRDNSKNTLYLQMNSLRAEDTAVYYCAQDETTTVTASYYFDYWGQGTLVTVSSAAAHHHHHH
B9: TPP-982: CD137A-6GS-HSA2-6GS-PDA-His (bispecific antibody)
chain: EVQLVESGGGLVQPGGSLRLSCAASGFTLSNYWMNWVRQAPGKGLEWVANINQDGSERYYVDSVKGRFTISRDNAKNSLYLQMNSLRAEDTAVYYCARGGEGYGVDHYGLDVSGQGTTVTVSSGGGGSGGGGSGGGGSGGGGSGGGGSGGGGSEVQLVESGGGLVKPGGSLRLSCAASGFTFSNYNMNWVRQAPGKGLEWVSSISSAGTHIYYADSVKGRFTISRDNAKNSLYLQMNSLRAEDTAVYYCARDPHSTGWYKDFDYWGQGTLVTVSSGGGGSGGGGSGGGGSGGGGSGGGGSGGGGSEVQLVESGGGLVQPGRSLRLSCAASGFTFDDYALHWVRQAPGKDLEWVSGISWNGGSYGYADSVKGRFTISRDNAKNSLYLQMNSLRAEDTALYYCVREKGPGLTGSTADYYGLDAWGQGTMVTVSSAAAHHHHHH
B10: TPP-983: CD137A-6GS-HSA2-6GS-PDA2-His (bispecific antibody)
chain: EVQLVESGGGLVQPGGSLRLSCAASGFTLSNYWMNWVRQAPGKGLEWVANINQDGSERYYVDSVKGRFTISRDNAKNSLYLQMNSLRAEDTAVYYCARGGEGYGVDHYGLDVSGQGTTVTVSSGGGGSGGGGSGGGGSGGGGSGGGGSGGGGSEVQLVESGGGLVKPGGSLRLSCAASGFTFSNYNMNWVRQAPGKGLEWVSSISSAGTHIYYADSVKGRFTISRDNAKNSLYLQMNSLRAEDTAVYYCARDPHSTGWYKDFDYWGQGTLVTVSSGGGGSGGGGSGGGGSGGGGSGGGGSGGGGSEVQLVESGGGVVRPGGSLRLSCAASGFTFDDYAMSWVRQAPGKGLEWVSGITWNAGSTGYADSVKGRFTISRDNAKNSLYLQMNSLRAEDTALYYCVRDKYSYAWSYDDFDIWGQGTMVTVSSAAAHHHHHH
B11: TPP-985: CD137D-6GS-HSA2-2-6GS-PDA2-His (bispecific antibody)
chain: EVQLVESGGGVVQPGGSLRLSCAASGFTFSNYGMHWVRQAPGKGLEWVAVISNDGNTKTYADSVKGRFTISRDNSKNTLYLQMNSLRAEDTAVYYCAQDETTTVTASYYFDYWGQGTLVTVSSGGGGSGGGGSGGGGSGGGGSGGGGSGGGGSEVQLVESGGGLVKPGGSLRLSCAASGFTFSNYNMNWVRQAPGKGLEWVSSISSAGTHIYYADSVKGRFTISRDNAKNSLYLQMNSLRAEDTAVYYCARDPHSTGWYKDFDYWGQGTLVTVSSGGGGSGGGGSGGGGSGGGGSGGGGSGGGGSEVQLVESGGGVVRPGGSLRLSCAASGFTFDDYAMSWVRQAPGKGLEWVSGITWNAGSTGYADSVKGRFTISRDNAKNSLYLQMNSLRAEDTALYYCVRDKYSYAWSYDDFDIWGQGTMVTVSSAAAHHHHHH
B12: TPP-971: PDA2-6GS-HSA2-6GS-172E1-13-His (bispecific antibody)
chain: EVQLVESGGGVVRPGGSLRLSCAASGFTFDDYAMSWVRQAPGKGLEWVSGITWNAGSTGYADSVKGRFTISRDNAKNSLYLQMNSLRAEDTALYYCVRDKYSYAWSYDDFDIWGQGTMVTVSSGGGGSGGGGSGGGGSGGGGSGGGGSGGGGSEVQLVESGGGLVKPGGSLRLSCAASGFTFSNYNMNWVRQAPGKGLEWVSSISSAGTHIYYADSVKGRFTISRDNAKNSLYLQMNSLRAEDTAVYYCARDPHSTGWYKDFDYWGQGTLVTVSSGGGGSGGGGSGGGGSGGGGSGGGGSGGGGSEVQLVESGGGVVQPGGSLRLSCAASGFTFSNYGMHWVRQAPGKGLEWVAVISNDGNTKTYADSVKGRFTISRDNSKNTLYLQMNSLRAEDTAVYYCAQDETTTVTASYYFDYWGQGTLVTVSSAAAHHHHHH

Biological target: human CD137 expressed on cells (Jurkat human CD137 NF-kB luciferase reporter cells; human CD8+ T cells) (human, UniProt Q07011 24-255)
Assay: cell-based or functional assay

Row | Jurkat-CD137/CHO-PD-1 Reporter Assay EC50 | Binder
1 | 4.11 nM | B1
2 | 11 nM | B2
3 | 11.5 nM | B3
4 | 34.7 nM | B4
5 | 11.8 nM | B5
6 | 5.29 nM | B6
7 | 10.9 nM | B7
8 | 3.61 nM | B8
9 | 0.57 nM | B9
10 | 0.556 nM | B10
11 | 21.7 nM | B11
12 | 7.18 nM | B12
